The text below walks through data of publication PMC2118261.

The target in assay [1] is human CD1d loaded with α-galactosylceramide, biotinylated (human) (UniProt P15813). The experiment in a line: SPR. For orientation: SPR reads the build-up and loss of mass on a sensor chip optically.
The target in assay [2] is mouse CD1d loaded with α-galactosylceramide, biotinylated (for SPR) (mouse) (UniProt P11609). Put plainly: SPR.
UniProt P11609, sequence (P11609 22-336): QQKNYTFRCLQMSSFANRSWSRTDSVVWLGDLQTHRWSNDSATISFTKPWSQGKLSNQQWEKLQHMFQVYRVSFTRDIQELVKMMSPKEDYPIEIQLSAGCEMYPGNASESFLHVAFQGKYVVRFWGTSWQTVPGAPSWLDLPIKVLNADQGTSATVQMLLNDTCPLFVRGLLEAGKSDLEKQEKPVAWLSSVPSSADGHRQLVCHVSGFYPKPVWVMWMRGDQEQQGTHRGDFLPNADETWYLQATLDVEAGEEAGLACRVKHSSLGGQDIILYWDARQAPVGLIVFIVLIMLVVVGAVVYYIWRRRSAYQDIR

UniProt P15813, sequence (P15813 20-335): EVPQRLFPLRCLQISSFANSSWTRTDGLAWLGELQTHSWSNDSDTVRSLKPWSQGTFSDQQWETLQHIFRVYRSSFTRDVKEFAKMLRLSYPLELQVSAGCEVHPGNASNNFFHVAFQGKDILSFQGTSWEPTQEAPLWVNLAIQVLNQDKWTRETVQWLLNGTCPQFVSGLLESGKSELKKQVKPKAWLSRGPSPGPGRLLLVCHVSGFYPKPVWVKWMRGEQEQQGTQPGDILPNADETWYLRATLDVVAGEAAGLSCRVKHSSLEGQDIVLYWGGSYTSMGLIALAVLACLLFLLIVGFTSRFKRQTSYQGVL

Turning to “NKT15 TCR (human semi-invariant NKT cell αβ T cell receptor, soluble extracellular domains)”, the Kd (commonly a measure of binding affinity in units of concentration) in assay [1] stood at 10 µM; in assay [2], 20 µM.
For the substance “NKT15α-chain/NKT15 β-chain engrafted with the LC13 CDR3β-loop (TCR)”, the fold lower affinity than NKT15 in assay [1] and in assay [2] was 5 to 10 fold throughout.
